Tested on: MS2 coat protein
Assay: apparent KD of MS2 coat protein; designed switch direction (-1 OFF switch, 1 ON switch): -1; higher = weaker reporter binding
Method in brief: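 Normalised cluster fluorescence was curve-fitted, and each design's median over clusters is its apparent KD. Before this, SNAP-549-labelled MS2 coat protein was titrated from 0.7 or 1.5 nM, doubling to 3 µM, over RNA switches transcribed on Illumina chips by stalled E. coli RNA polymerase. Titrations had no input, 200 uM small-molecule ligand, or an oligonucleotide input, and steps lasted 0.8–1.5 h (lowest) to 10–20 min (highest).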

[1] = input ligand: microRNA oligo, concentration not stated
[2] = Eterna round: R95, input ligand: FMN 200 uM
[3] = Eterna round: R95, input ligand: microRNA oligo, concentration not stated
[4] = Eterna round: R95, input ligand: none

AGGUGCUUCUGGAGACAUGAGGAUCACCCAUGUUGAGUUAGCGAGGAUAUCGGUAAUGCAUGUGAUGAGAAGGCGCAAACCGAU [Ex NG3 #48] (Eterna round: R96, puzzle: Exclusion NG 3)
apparent KD of MS2 coat protein (input ligand: FMN 200 uM): 36.8 nM | apparent KD of MS2 coat protein [1]: 40.3 nM | apparent KD of MS2 coat protein (input ligand: none): 46.1 nM

AGGUGUAGAGGAUAUACAGUGUAUUACAUGAGGAUCACCCAUGUCCCUCAAUGAGUGUCAGUAGAAGGCUACACCA [Omei Ex5 C3] (Eterna round: R97, puzzle: Exclusion 5)
apparent KD of MS2 coat protein (input ligand: FMN 200 uM): 329 nM | apparent KD of MS2 coat protein (input ligand: none): 403 nM

AGGUGUAGAGGAUAUACUGCAAAGCACAUGAGGAUCACCCAUGUCCCUCUAUGAAAUUAAGUAGAAGGCUACACCA [Omei Ex5 C5] (Eterna round: R97, puzzle: Exclusion 5)
apparent KD of MS2 coat protein (input ligand: FMN 200 uM): 88.6 nM | apparent KD of MS2 coat protein (input ligand: none): 77.1 nM

AGUAACUAUCACGAAAGUGAUAGUUACAAUAGCAGUGGAACAUGAGGAUCACCCAUGUCCUCAUUUGCUCGUCUUAU [Sensor 3 - 22] (puzzle: Sensor v3, turn-off variant 2)
apparent KD of MS2 coat protein [2]: 36.2 nM | apparent KD of MS2 coat protein [3]: 21.6 nM | apparent KD of MS2 coat protein [4]: 38.4 nM

AGUAACUAUCACGAAAGUGAUAGUUACACAAGUGAAUAAACAUGAGGAUCACCCAUGUCCUCAUUUGCUCGUCUUAU [Sensor 3 - 16] (puzzle: Sensor v3, turn-off variant 2)
apparent KD of MS2 coat protein [2]: 418 nM | apparent KD of MS2 coat protein [3]: 365 nM | apparent KD of MS2 coat protein [4]: 499 nM

AGUACUAACACGAAAGUGUUAGUACAAUAAGCUAGUGGAACAUGAGGAUCACCCAUGUCCUCAUUAGCUCGUCUUAA [Mat - Sensor v3 - Turn-off var 2 - D34] (puzzle: Sensor v3, turn-off variant 2)
apparent KD of MS2 coat protein [2]: 14.2 nM | apparent KD of MS2 coat protein [3]: 29.2 nM | apparent KD of MS2 coat protein [4]: 15.5 nM

AGUACUAACACGAAAGUGUUAGUACAAUAAGCUUGUAGAACAUGAGGAUCACCCAUGUCCUCAUAAGCUCGUCUUAU [Mat - Sensor v3 - Turn-off var 2 - D48] (puzzle: Sensor v3, turn-off variant 2)
apparent KD of MS2 coat protein [2]: 52.1 nM | apparent KD of MS2 coat protein [3]: 442 nM | apparent KD of MS2 coat protein [4]: 53.5 nM

AGUACUAACACGAAAGUGUUAGUACAAUAAGCUUGUGAAACAUGAGGAUCACCCAUGUCCUCAUAGGCUCGUCUUAU [salish99_TOv2_r3_054] (puzzle: Sensor v3, turn-off variant 2)
apparent KD of MS2 coat protein [2]: 26.3 nM | apparent KD of MS2 coat protein [3]: 607 nM | apparent KD of MS2 coat protein [4]: 18.3 nM

AGUACUAACACGAUAGUGUUAGUACAAUAAGCUUGUGUUACAUGAGGAUCACCCAUGUCCUCAUAAGCUCGUCUUAU [Mat - Sensor v3 - Turn-off var 2 - D54] (puzzle: Sensor v3, turn-off variant 2)
apparent KD of MS2 coat protein [2]: 105 nM | apparent KD of MS2 coat protein [3]: 30.4 nM | apparent KD of MS2 coat protein [4]: 129 nM

AGUACUAUCACGAAAGUGAUAGUACAACGAGCUUGUGAAACAUGAGGAUCACCCAUGUCCUCAUGAGUUCGUCUUAU [JL turnoff v2 67] (Eterna round: R96, puzzle: Sensor v2, turn-off variant 2)
apparent KD of MS2 coat protein (input ligand: FMN 200 uM): 13.9 nM | apparent KD of MS2 coat protein [1]: 65.4 nM | apparent KD of MS2 coat protein (input ligand: none): 15.7 nM

AGUACUAUGCGAGCUGACUUGCGUAGUGCAGCAGGUGUUACAUGAGGAUCACCCAUGUCCUCAUUUGCUCGUCUUAA [Mat - Sensor v3 - Turn-off var 2 - D7] (puzzle: Sensor v3, turn-off variant 2)
apparent KD of MS2 coat protein [2]: 267 nM | apparent KD of MS2 coat protein [3]: 91.8 nM | apparent KD of MS2 coat protein [4]: 293 nM

AGUACUGACACGUUGGUGUUAGUACCAUAAGCUUGUGAUACAUGAGGAUCACCCAUGUCCUCAUAAGCUCGUCUUAU [salish99_TOv2_r2_096] (puzzle: Sensor v3, turn-off variant 2)
apparent KD of MS2 coat protein [2]: 27.4 nM | apparent KD of MS2 coat protein [3]: 484 nM | apparent KD of MS2 coat protein [4]: 26 nM

AGUACUGAGCAGGAUAUAUACAGGAUGCCCUCUGUAGAAGGGCUAACAUGAGGAUCACCCAUGUCCUAUAUGGC [Eternabot (L2) Solution 56] (Eterna round: R97, puzzle: Exclusion 6)
apparent KD of MS2 coat protein (input ligand: FMN 200 uM): 39 nM | apparent KD of MS2 coat protein (input ligand: none): 49.1 nM

AGUACUUACACGAAAGUGUAAGUACAAUAAGCUUGUGGAACAUGAGGAUCACCCAUGUCCUCAUAAGCUCGUCUUAU [Mat - Sensor v3 - Turn-off var 2 - D28] (puzzle: Sensor v3, turn-off variant 2)
apparent KD of MS2 coat protein [2]: 14.5 nM | apparent KD of MS2 coat protein [3]: 75.2 nM | apparent KD of MS2 coat protein [4]: 14.3 nM

AGUAGGUCUACCUUGGUGGAUCUGCAUUUAUGCAGGUGUACAUGAGGAUCACCCAUGUCCUCAUUUGCUCGUCUUAU [JL turnoff v2 99.27] (puzzle: Sensor v3, turn-off variant 2)
apparent KD of MS2 coat protein [2]: 400 nM | apparent KD of MS2 coat protein [3]: 501 nM | apparent KD of MS2 coat protein [4]: 349 nM

AGUAGUAGUAUCCGAUCCUACAUGAGGAUCACCCAUGUAGCUAGACGUGCACGCGAUGCUCGUCAGACUACCAGAUG [salish99_TOv1_r3_033] (puzzle: Sensor v3, turn-off variant 1)
apparent KD of MS2 coat protein [2]: 195 nM | apparent KD of MS2 coat protein [3]: 184 nM | apparent KD of MS2 coat protein [4]: 253 nM

AGUAGUAGUAUCCGAUCCUACAUGAGGAUCACCCAUGUAGCUAGACGUGCACGCGAUGCUCGUCAGACUGCCAGAUG [salish99_TOv1_r3_049] (puzzle: Sensor v3, turn-off variant 1)
apparent KD of MS2 coat protein [2]: 95.4 nM | apparent KD of MS2 coat protein [3]: 97.8 nM | apparent KD of MS2 coat protein [4]: 128 nM

AGUAGUAGUAUCCGAUCUUACAUGAGGAUCACCCAUGUAGCUAGACGUGCACGCGAUGCUCGUCAGACUACCAGAUG [salish99_TOv1_r3_051] (puzzle: Sensor v3, turn-off variant 1)
apparent KD of MS2 coat protein [2]: 148 nM | apparent KD of MS2 coat protein [3]: 230 nM | apparent KD of MS2 coat protein [4]: 277 nM

AGUAGUUCAGGAUAUGAUGUUAAAUACAUGAGGAUCACCCAUGUAGAUCCUGAAUUUACAUCAGAAGGGAAUAACU [JR_Ex5_Sub082] (Eterna round: R97, puzzle: Exclusion 5)
apparent KD of MS2 coat protein (input ligand: FMN 200 uM): 91.7 nM | apparent KD of MS2 coat protein (input ligand: none): 25.5 nM

AGUAUGUCAGGAUAUCUCGGGUAGCCCACAACGACUACCGAAGAGAAGGGACAUGAGGAUCACCCAUGUACCAU [EX4 B.15] (Eterna round: R97, puzzle: Exclusion 4)
apparent KD of MS2 coat protein (input ligand: FMN 200 uM): 29.9 nM | apparent KD of MS2 coat protein (input ligand: none): 34.3 nM

AGUCGAAAGAUCCACAUGGACAUGAGGAUCACCCAUGUGCAAGCCUUUUUCUCGUCACUAUCGUCAAAAGACGAUAG [Omei Mir Offv1 A6] (Eterna round: R97, puzzle: Sensor, turn-off variant 1)
apparent KD of MS2 coat protein (input ligand: FMN 200 uM): 185 nM | apparent KD of MS2 coat protein (input ligand: none): 234 nM

AGUCGGCGAGGAUAUACAUGAGGAUCACCCAUGUAUGAUCCUAGACCUGUAGGUCCAUGUAGAAGGCGCUGACA [Exclusion 3 - Was a mod at one point v.3] (puzzle: Exclusion 3)
apparent KD of MS2 coat protein [3]: 66.2 nM

AGUGCGUAUGUGAGGAUAUGCUGGUCCUUGGAUCAGCAGAAGGCACAUGAGGAUCACCCAUGUGGUGUCGUACA [salish99_Bmod_Ex4_006] (puzzle: Brourd's mod of Exclusion 4)
apparent KD of MS2 coat protein [3]: 320 nM

AGUGCUAACACGAAAGUGUUAGUACAAUAAGCUUGUGAAACAUGAGGAUCACCCAUGUCCUCAUAAGCUCGUCUUAU [salish99_TOv2_r3_014] (puzzle: Sensor v3, turn-off variant 2)
apparent KD of MS2 coat protein [2]: 17.8 nM | apparent KD of MS2 coat protein [3]: 651 nM | apparent KD of MS2 coat protein [4]: 17.7 nM

AGUGCUGACACGUUGGUGUUAGUACCAUAAGCUUGUGAUACAUGAGGAUCACCCAUGUCCUCAUAAGCUCGUCUUAU [salish99_TOv2_r2_097] (puzzle: Sensor v3, turn-off variant 2)
apparent KD of MS2 coat protein [2]: 28.6 nM | apparent KD of MS2 coat protein [3]: 669 nM | apparent KD of MS2 coat protein [4]: 26.8 nM

AGUGCUGCAGGAUAUUCUAUUAAUUACAUGAGGAUCACCCAUGUGAAUGGACAAGGGUGUGAAGAAGGGUGGUACG [Omei Ex5 A17i] (Eterna round: R97, puzzle: Exclusion 5)
apparent KD of MS2 coat protein (input ligand: FMN 200 uM): 262 nM | apparent KD of MS2 coat protein (input ligand: none): 496 nM

AGUGGUAGUAUCCGAUCCUACAUGAGGAUCACCCAUGUAGCUAGACGUGCACGCGAUGCUCGUCAGACUACCAGAUG [salish99_TOv1_r3_040] (puzzle: Sensor v3, turn-off variant 1)
apparent KD of MS2 coat protein [2]: 16.5 nM | apparent KD of MS2 coat protein [3]: 14.1 nM | apparent KD of MS2 coat protein [4]: 18.1 nM

AGUUGUAAAGAGGAUAUCCAUCCCGGCAUCCAUGGAGAAGGUUUAACAUGAGGAUCACCCAUGUCAUGAUCCUC [Eternabot (L2) Solution 3] (Eterna round: R97, puzzle: Exclusion 6)
apparent KD of MS2 coat protein (input ligand: FMN 200 uM): 824 nM | apparent KD of MS2 coat protein (input ligand: none): 692 nM

AUAAAACGUGUAGGAUAUGCGUGGCGAAGCUAUGCAGAAGGACAUGAGGAUCACCCAUGUUCAAGCGUCUGCGUACAGAUGCUA [JL eng1 1.35 mod 6] (Eterna round: R96, puzzle: Exclusion NG 1)
apparent KD of MS2 coat protein (input ligand: FMN 200 uM): 16.9 nM | apparent KD of MS2 coat protein [1]: 14.1 nM | apparent KD of MS2 coat protein (input ligand: none): 14.5 nM

AUAAAGAAUGUUAGGAUAUUGGUGAAUAGGCUGACUAAGAAGGAACAUGAGGAUCACCCAUGUAACAUGGAAAA [Tiinzaesqu] (puzzle: Brourd's mod of Exclusion 4)
apparent KD of MS2 coat protein [2]: 68.8 nM | apparent KD of MS2 coat protein [3]: 24.5 nM | apparent KD of MS2 coat protein [4]: 33.6 nM

AUAAAUCAUGUAGGAUAUGCGUGGCAAAGCUAUGCAGAAGGACAUGAGGAUCACCCAUGUCUUUCCGUCUGAGUACAGACGGGA [Mat - Exclusion NG 1 - Mod of JL - D47] (Eterna round: R96, puzzle: Exclusion NG 1)
apparent KD of MS2 coat protein (input ligand: FMN 200 uM): 172 nM | apparent KD of MS2 coat protein [1]: 21.1 nM | apparent KD of MS2 coat protein (input ligand: none): 24.9 nM
